US20240150445A1 (DUKE UNIVERSITY, published 2024)

Molecular target: Env 10.17 gp120 (HIV-1)
Test: direct-binding ELISA (OD450) on CH848.d0949.10.17 gp120 [panel A]

B1: DH270.IA4 (antibody, V domains shown)
VH: QVQLVQSGAEVKKPGASVKVSCKASGYTFTDYYIHWVRQAPGQGLEWMGWINPNTGRTNYAQKFQGRVTMTRDTSISTAYMELSRLRSDDTAVYYCARGGWIGLYYDSSGYPNFDYWGQGTLVTVSS
VL: QSALTQPASVSGSPGQSITISCTGTSYDVGSYNLVSWYQQHPGKAPKLMIYEVSKRPSGVSNRFSGSKSGNTASLTISGLQAEDEADYYCCSYAGSSTVIFGGGTKLTVL
notes: Inferred intermediate, recombinant IgG; also called DH270.I4
EC50 (read off the curve): ~2 µg/mL
